According to US20140363428A1 (Chugai, published 2014):

Target: T1, soluble human FcRn (human, UniProt P55899 24-297; P61769 21-119)
T1 construct: Heterodimer of alpha chain and beta2-microglobulin; also called hFcRn
Assay: SPR (Biacore), pH 7.0

Row | Binder | Kd [nM]
1 | Fv-4-F1068 (antibody, human IgG1, kappa) heavy: QVQLQESGPGLVKPSETLSLTCAVSGHSISHDHAWSWVRQPPGEGLEWIGFISYSGITNYNPSLQGRVTISRDNSKNTLYLQMNSLRAEDTAVYYCARSLARTTAMDYWGEGTLVTVSSASTKGPSVFPLAPSSKSTSGGTAALGCLVKDYFPEPVTVSWNSGALTSGVHTFPAVLQSSGLYSLSSVVTVPSSSLGTQTYICNVNHKPSNTKVDKKVEPKSCDKTHTCPPCPAPELLGGPSVFLFPPKPKDTLYISRTPEVTCVVVDVSHEDPEVKFNWYVDGVEVHNAKTKPREEQYNSTYRVVSVLTVLHQDWLNGKEYKCKVSNKALPAPIEKTISKAKGQPREPQVYTLPPSRDELTKNQVSLTCLVKGFYPSDIAVEWESNGQPENNYKTTPPVLDSDGSFFLYSKLTVDKSRWQQGNVFRCSVMHEALHYHVTQKSLSLSP light: DIQMTQSPSSLSASVGDSVTITCQASTDISSHLNWYQQKPGKAPELLIYYGSHLLSGVPSRFSGSGSGTDFTFTISSLEAEDAATYYCGQGNRLPYTFGQGTKVEIERTVAAPSVFIFPPSDEQLKSGTASVVCLLNNFYPREAKVQWKVDNALQSGNSQESVTEQDSKDSTYSLSSTLTLSKADYEKHKVYACEVTHQGLSSPVTKSFNRGEC | 170
2 | Fv-4-F1067 (antibody, human IgG1, kappa) heavy: QVQLQESGPGLVKPSETLSLTCAVSGHSISHDHAWSWVRQPPGEGLEWIGFISYSGITNYNPSLQGRVTISRDNSKNTLYLQMNSLRAEDTAVYYCARSLARTTAMDYWGEGTLVTVSSASTKGPSVFPLAPSSKSTSGGTAALGCLVKDYFPEPVTVSWNSGALTSGVHTFPAVLQSSGLYSLSSVVTVPSSSLGTQTYICNVNHKPSNTKVDKKVEPKSCDKTHTCPPCPAPELLGGPSVFLFPPKPKDTLYISRTPEVTCVVVDVSHEDPEVKFNWYVDGVEVHNAKTKPREEQYNSTYRVVSVLTVLHQDWLNGKEYKCKVSNKALPAPIEKTISKAKGQPREPQVYTLPPSRDELTKNQVSLTCLVKGFYPSDIAVEWESNGQPENNYKTTPPVLDSDGSFFLYSKLTVDKSRWQQGNVFECSVMHEALHYHVTQKSLSLSP light: DIQMTQSPSSLSASVGDSVTITCQASTDISSHLNWYQQKPGKAPELLIYYGSHLLSGVPSRFSGSGSGTDFTFTISSLEAEDAATYYCGQGNRLPYTFGQGTKVEIERTVAAPSVFIFPPSDEQLKSGTASVVCLLNNFYPREAKVQWKVDNALQSGNSQESVTEQDSKDSTYSLSSTLTLSKADYEKHKVYACEVTHQGLSSPVTKSFNRGEC | 130
3 | Fv-4-F1069 (antibody, human IgG1, kappa) heavy: QVQLQESGPGLVKPSETLSLTCAVSGHSISHDHAWSWVRQPPGEGLEWIGFISYSGITNYNPSLQGRVTISRDNSKNTLYLQMNSLRAEDTAVYYCARSLARTTAMDYWGEGTLVTVSSASTKGPSVFPLAPSSKSTSGGTAALGCLVKDYFPEPVTVSWNSGALTSGVHTFPAVLQSSGLYSLSSVVTVPSSSLGTQTYICNVNHKPSNTKVDKKVEPKSCDKTHTCPPCPAPELLGGPSVFLFPPKPKDTLYISRTPEVTCVVVDVSHEDPEVKFNWYVDGVEVHNAKTKPREEQYNSTYRVVSVLTVLHQDWLNGKEYKCKVSNKALPAPIEKTISKAKGQPREPQVYTLPPSRDELTKNQVSLTCLVKGFYPSDIAVEWESNGQPENNYKTTPPVLDSDGSFFLYSKLTVDKSRWQQGNVFSCSVMHEALHYHVTEKSLSLSP light: DIQMTQSPSSLSASVGDSVTITCQASTDISSHLNWYQQKPGKAPELLIYYGSHLLSGVPSRFSGSGSGTDFTFTISSLEAEDAATYYCGQGNRLPYTFGQGTKVEIERTVAAPSVFIFPPSDEQLKSGTASVVCLLNNFYPREAKVQWKVDNALQSGNSQESVTEQDSKDSTYSLSSTLTLSKADYEKHKVYACEVTHQGLSSPVTKSFNRGEC | 140
4 | Fv-4-F1071 (antibody, human IgG1, kappa) heavy: QVQLQESGPGLVKPSETLSLTCAVSGHSISHDHAWSWVRQPPGEGLEWIGFISYSGITNYNPSLQGRVTISRDNSKNTLYLQMNSLRAEDTAVYYCARSLARTTAMDYWGEGTLVTVSSASTKGPSVFPLAPSSKSTSGGTAALGCLVKDYFPEPVTVSWNSGALTSGVHTFPAVLQSSGLYSLSSVVTVPSSSLGTQTYICNVNHKPSNTKVDKKVEPKSCDKTHTCPPCPAPELLGGPSVFLFPPKPKDTLYISRTPEVTCVVVDVSHEDPEVKFNWYVDGVEVHNAKTKPREEQYNSTYRVVSVLTVLHQDWLNGKEYKCKVSNKALPAPIEKTISKAKGQPREPQVYTLPPSRDELTKNQVSLTCLVKGFYPSDIAVEWESNGQPENNYKTTPPVLDSDGSFFLYSKLTVDKSRWQQGNVFSCSVMHEALHYHVTSKSLSLSP light: DIQMTQSPSSLSASVGDSVTITCQASTDISSHLNWYQQKPGKAPELLIYYGSHLLSGVPSRFSGSGSGTDFTFTISSLEAEDAATYYCGQGNRLPYTFGQGTKVEIERTVAAPSVFIFPPSDEQLKSGTASVVCLLNNFYPREAKVQWKVDNALQSGNSQESVTEQDSKDSTYSLSSTLTLSKADYEKHKVYACEVTHQGLSSPVTKSFNRGEC | 120

Further binders by falling Kd, results first:

Row | Kd [nM] | Binder
5 | 170 | Fv-4-F1070 (antibody, human IgG1, kappa) heavy: QVQLQESGPGLVKPSETLSLTCAVSGHSISHDHAWSWVRQPPGEGLEWIGFISYSGITNYNPSLQGRVTISRDNSKNTLYLQMNSLRAEDTAVYYCARSLARTTAMDYWGEGTLVTVSSASTKGPSVFPLAPSSKSTSGGTAALGCLVKDYFPEPVTVSWNSGALTSGVHTFPAVLQSSGLYSLSSVVTVPSSSLGTQTYICNVNHKPSNTKVDKKVEPKSCDKTHTCPPCPAPELLGGPSVFLFPPKPKDTLYISRTPEVTCVVVDVSHEDPEVKFNWYVDGVEVHNAKTKPREEQYNSTYRVVSVLTVLHQDWLNGKEYKCKVSNKALPAPIEKTISKAKGQPREPQVYTLPPSRDELTKNQVSLTCLVKGFYPSDIAVEWESNGQPENNYKTTPPVLDSDGSFFLYSKLTVDKSRWQQGNVFSCSVMHEALHYHVTRKSLSLSP light: DIQMTQSPSSLSASVGDSVTITCQASTDISSHLNWYQQKPGKAPELLIYYGSHLLSGVPSRFSGSGSGTDFTFTISSLEAEDAATYYCGQGNRLPYTFGQGTKVEIERTVAAPSVFIFPPSDEQLKSGTASVVCLLNNFYPREAKVQWKVDNALQSGNSQESVTEQDSKDSTYSLSSTLTLSKADYEKHKVYACEVTHQGLSSPVTKSFNRGEC
6 | 140 | Fv-4-F1066 (antibody, human IgG1, kappa) heavy: QVQLQESGPGLVKPSETLSLTCAVSGHSISHDHAWSWVRQPPGEGLEWIGFISYSGITNYNPSLQGRVTISRDNSKNTLYLQMNSLRAEDTAVYYCARSLARTTAMDYWGEGTLVTVSSASTKGPSVFPLAPSSKSTSGGTAALGCLVKDYFPEPVTVSWNSGALTSGVHTFPAVLQSSGLYSLSSVVTVPSSSLGTQTYICNVNHKPSNTKVDKKVEPKSCDKTHTCPPCPAPELLGGPSVFLFPPKPKDTLYISRTPEVTCVVVDVSHEDPEVKFNWYVDGVEVHNAKTKPREEQYNSTYRVVSVLTVLHQDWLNGKEYKCKVSNKALPAPIEKTISKAKGQPREPQVYTLPPSRDELTKNQVSLTCLVKGFYPSDIAVEWESNGQPENNYKTTPPVLDSDGSFFLYSKLTVDKSRWQQGNSFSCSVMHEALHYHVTQKSLSLSP light: DIQMTQSPSSLSASVGDSVTITCQASTDISSHLNWYQQKPGKAPELLIYYGSHLLSGVPSRFSGSGSGTDFTFTISSLEAEDAATYYCGQGNRLPYTFGQGTKVEIERTVAAPSVFIFPPSDEQLKSGTASVVCLLNNFYPREAKVQWKVDNALQSGNSQESVTEQDSKDSTYSLSSTLTLSKADYEKHKVYACEVTHQGLSSPVTKSFNRGEC
7 | 140 | Fv-4-F1065 (antibody, human IgG1, kappa) heavy: QVQLQESGPGLVKPSETLSLTCAVSGHSISHDHAWSWVRQPPGEGLEWIGFISYSGITNYNPSLQGRVTISRDNSKNTLYLQMNSLRAEDTAVYYCARSLARTTAMDYWGEGTLVTVSSASTKGPSVFPLAPSSKSTSGGTAALGCLVKDYFPEPVTVSWNSGALTSGVHTFPAVLQSSGLYSLSSVVTVPSSSLGTQTYICNVNHKPSNTKVDKKVEPKSCDKTHTCPPCPAPELLGGPSVFLFPPKPKDTLYISRTPEVTCVVVDVSHEDPEVKFNWYVDGVEVHNAKTKPREEQYNSTYRVVSVLTVLHQDWLNGKEYKCKVSNKALPAPIEKTISKAKGQPREPQVYTLPPSRDELTKNQVSLTCLVKGFYPSDIAVEWESNGQPENNYKTTPPVLDSDGSFFLYSKLTVDKSRWQQGNRFSCSVMHEALHYHVTQKSLSLSP light: DIQMTQSPSSLSASVGDSVTITCQASTDISSHLNWYQQKPGKAPELLIYYGSHLLSGVPSRFSGSGSGTDFTFTISSLEAEDAATYYCGQGNRLPYTFGQGTKVEIERTVAAPSVFIFPPSDEQLKSGTASVVCLLNNFYPREAKVQWKVDNALQSGNSQESVTEQDSKDSTYSLSSTLTLSKADYEKHKVYACEVTHQGLSSPVTKSFNRGEC
8 | 130 | Fv-4-F1064 (antibody, human IgG1, kappa) heavy: QVQLQESGPGLVKPSETLSLTCAVSGHSISHDHAWSWVRQPPGEGLEWIGFISYSGITNYNPSLQGRVTISRDNSKNTLYLQMNSLRAEDTAVYYCARSLARTTAMDYWGEGTLVTVSSASTKGPSVFPLAPSSKSTSGGTAALGCLVKDYFPEPVTVSWNSGALTSGVHTFPAVLQSSGLYSLSSVVTVPSSSLGTQTYICNVNHKPSNTKVDKKVEPKSCDKTHTCPPCPAPELLGGPSVFLFPPKPKDTLYISRTPEVTCVVVDVSHEDPEVKFNWYVDGVEVHNAKTKPREEQYNSTYRVVSVLTVLHQDWLNGKEYKCKVSNKALPAPIEKTISKAKGQPREPQVYTLPPSRDELTKNQVSLTCLVKGFYPSDIAVEWESNGQPENNYKTTPPVLDSDGSFFLYSKLTVDKSRWQQGNEFSCSVMHEALHYHVTQKSLSLSP light: DIQMTQSPSSLSASVGDSVTITCQASTDISSHLNWYQQKPGKAPELLIYYGSHLLSGVPSRFSGSGSGTDFTFTISSLEAEDAATYYCGQGNRLPYTFGQGTKVEIERTVAAPSVFIFPPSDEQLKSGTASVVCLLNNFYPREAKVQWKVDNALQSGNSQESVTEQDSKDSTYSLSSTLTLSKADYEKHKVYACEVTHQGLSSPVTKSFNRGEC
9 | 130 | Fv-4-F1072 (antibody) heavy: QVQLQESGPGLVKPSETLSLTCAVSGHSISHDHAWSWVRQPPGEGLEWIGFISYSGITNYNPSLQGRVTISRDNSKNTLYLQMNSLRAEDTAVYYCARSLARTTAMDYWGEGTLVTVSSASTKGPSVFPLAPSSKSTSGGTAALGCLVKDYFPEPVTVSWNSGALTSGVHTFPAVLQSSGLYSLSSVVTVPSSSLGTQTYICNVNHKPSNTKVDKKVEPKSCDKTHTCPPCPAPELLGGPSVFLFPPKPKDTLYISRTPEVTCVVVDVSHEDPEVKFNWYVDGVEVHNAKTKPREEQYNSTYRVVSVLTVLHQDWLNGKEYKCKVSNKALPAPIEKTISKAKGQPREPQVYTLPPSRDELTKNQVSLTCLVKGFYPSDIAVEWESNGQPENNYKTTPPVLDSDGSFFLYSKLTVDKSRWQQGNVFSCSVMHEALHYHVTQKELSLSP light: DIQMTQSPSSLSASVGDSVTITCQASTDISSHLNWYQQKPGKAPELLIYYGSHLLSGVPSRFSGSGSGTDFTFTISSLEAEDAATYYCGQGNRLPYTFGQGTKVEIERTVAAPSVFIFPPSDEQLKSGTASVVCLLNNFYPREAKVQWKVDNALQSGNSQESVTEQDSKDSTYSLSSTLTLSKADYEKHKVYACEVTHQGLSSPVTKSFNRGEC
